Test [1] has as its target GST-DRM2 UBA1 (Arabidopsis). The test is described as follows: SPR.
For the next test, the target named is GST-hHR23A UBA1 (human). Nature of the test: SPR.
The target of a further test is GST-Ede1 UBA (yeast) (UniProt P34216). Nature of the test: SPR.
The target of another test is Ede1_rhodamine (yeast) (UniProt P34216). The test is described as follows: fluorescence polarisation.
For test [2], the target named is GST-His/GST-Ede1 heterodimer of the functionally monomeric mixture (not stated | yeast) (UniProt P34216). Nature of the test: SPR.
Test [3] concerns the target fluorescein-labeled hHR23A-UBA1 (human). The test is described as follows: fluorescence polarisation.
Test [4] addresses Dsk2 UBA, fluorescent free domain (yeast) (UniProt P48510). The test is described as follows: fluorescence polarisation.
Test [5] concerns the target Ddi1 UBA, fluorescent free domain (yeast) (UniProt P40087). The test is described as follows: fluorescence polarisation.

pKd: −log10 of the molar value.

Sequence of Ede1_rhodamine (yeast) (P34216 1338-1380): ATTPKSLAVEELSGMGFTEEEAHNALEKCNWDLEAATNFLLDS
Sequence of GST-Ede1 UBA (yeast) (P34216 1338-1380): as above
Sequence of Dsk2 UBA, fluorescent free domain (yeast) (P48510 327-371): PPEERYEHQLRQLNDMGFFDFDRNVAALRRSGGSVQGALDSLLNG
Sequence of Ddi1 UBA, fluorescent free domain (yeast) (P40087 389-428): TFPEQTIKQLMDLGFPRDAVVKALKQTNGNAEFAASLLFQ

On to “K48-linked diubiquitin (from UniProt P0CG48 1-76)”, for which the pKd in test [1] was 3.85; in the test with GST-hHR23A UBA1 (human), 4.44; in the test with GST-Ede1 UBA (yeast), 3.96; with Ede1_rhodamine (yeast), 4.07.

In the case of “K48-linked tetraubiquitin (from UniProt P0CG48 1-76)”, the pKd in test [2] is 4.36; with GST-Ede1 UBA (yeast), 4.60; in test [3], 5.05; in test [4] it was 5.85; in test [5], 4.30; with Ede1_rhodamine (yeast), 4.51.

Consider “K63-linked diubiquitin (from UniProt P0CG48 1-76)”, for which the pKd in test [1] is 4.05; with GST-hHR23A UBA1 (human), 4.59; in the test with GST-Ede1 UBA (yeast), 4.32; with Ede1_rhodamine (yeast), 3.92.

In the case of “K63-linked tetraubiquitin (from UniProt P0CG48 1-76)”, the pKd is 4.64 in test [2]; 5.33 with GST-hHR23A UBA1 (human); 5.22 with GST-Ede1 UBA (yeast); 4.52 in test [3]; 5.66 in test [4]; 4.04 in test [5]. The substance also gave a pKd in the test with Ede1_rhodamine (yeast) of 4.27.
